Laboratory results reported in patent publication US20140322307A1 (LIPOTEC S A, published 2014).

T1: Proteinase-Activated Receptor-2 (human, on human keratinocytes) (human, UniProt P55085 37-397)
T1 sequence (looked up): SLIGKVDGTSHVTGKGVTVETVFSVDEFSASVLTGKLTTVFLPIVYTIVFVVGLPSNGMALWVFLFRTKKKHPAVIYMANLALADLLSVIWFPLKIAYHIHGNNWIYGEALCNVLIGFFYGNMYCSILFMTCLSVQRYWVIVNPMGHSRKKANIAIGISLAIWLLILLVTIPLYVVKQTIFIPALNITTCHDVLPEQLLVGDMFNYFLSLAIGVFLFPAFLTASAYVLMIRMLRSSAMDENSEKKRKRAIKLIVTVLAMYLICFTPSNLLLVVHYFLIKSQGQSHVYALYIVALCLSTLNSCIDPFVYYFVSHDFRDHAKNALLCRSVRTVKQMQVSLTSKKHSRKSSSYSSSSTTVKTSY


The binders below were run against T1, Proteinase-Activated Receptor-2 (human, …) (assay: cell-based or functional assay).

Row | Inhibition PAR-2 activity (calcium fluorescence, human keratinocytes, peptide at 1 mg/mL) | PAR-2 activity (calcium fluorescence, human keratinocytes, peptide at 1 mg/mL) | Binder
1 | 22.6% | 77.5% | Ac-FMQFHV-NH2 [Ac-L-Phe-L-Met-L-Gln-L-Phe-L-His-L-Val-NH2]
2 | 38.4% | 61.6% | Ac-FFWDIS-NH2 [Ac-L-Phe-L-Phe-L-Trp-L-Asp-L-Ile-L-Ser-NH2]
3 | 60.3% | 39.7% | Ac-FFRDHV-NH2 [Ac-L-Phe-L-Phe-L-Arg-L-Asp-L-His-L-Val-NH2]
4 | 9.9% | 90.1% | Ac-SFQFHS-NH2 [Ac-L-Ser-L-Phe-L-Gln-L-Phe-L-His-L-Ser-NH2]
5 | 23.4% | 76.6% | Ac-FFRFHV-NH2 [Ac-L-Phe-L-Phe-L-Arg-L-Phe-L-His-L-Val-NH2]
6 | 49.2% | 50.8% | Ac-FFWFHS-NH2 [Ac-L-Phe-L-Phe-L-Trp-L-Phe-L-His-L-Ser-NH2]
7 | 89.1% | 10.9% | Ac-FMQFIS-NH2 [Ac-L-Phe-L-Met-L-Gln-L-Phe-L-Ile-L-Ser-NH2]
8 | 75.2% | 24.8% | Ac-SMRFIV-NH2 [Ac-L-Ser-L-Met-L-Arg-L-Phe-L-Ile-L-Val-NH2]
9 | 58.3% | 41.7% | Ac-SFWFHV-NH2 [Ac-L-Ser-L-Phe-L-Trp-L-Phe-L-His-L-Val-NH2]
10 | 16.2% | 83.8% | Ac-SFRFIS-NH2 [Ac-L-Ser-L-Phe-L-Arg-L-Phe-L-Ile-L-Ser-NH2]
11 | 20.7% | 79.3% | Ac-FMWFIV-NH2 [Ac-L-Phe-L-Met-L-Trp-L-Phe-L-Ile-L-Val-NH2]
12 | 67.8% | 32.2% | Ac-SMWFIS-NH2 [Ac-L-Ser-L-Met-L-Trp-L-Phe-L-Ile-L-Ser-NH2]
13 | 40.9% | 59.1% | Ac-FMRFIV-NH2 [Ac-L-Phe-L-Met-L-Arg-L-Phe-L-Ile-L-Val-NH2]
14 | 26.5% | 73.5% | Ac-FMWDIS-NH2 [Ac-L-Phe-L-Met-L-Trp-L-Asp-L-Ile-L-Ser-NH2]
15 | 52.6% | 47.4% | Ac-SMQFIS-NH2 [Ac-L-Ser-L-Met-L-Gln-L-Phe-L-Ile-L-Ser-NH2]
16 | 39% | 61% | Ac-SFQFIS-NH2 [Ac-L-Ser-L-Phe-L-Gln-L-Phe-L-Ile-L-Ser-NH2]
17 | 59.3% | 40.7% | Ac-FFQFIS-NH2 [Ac-L-Phe-L-Phe-L-Gln-L-Phe-L-Ile-L-Ser-NH2]
18 | 19.9% | 80.1% | Ac-FFQFHV-NH2 [Ac-L-Phe-L-Phe-L-Gln-L-Phe-L-His-L-Val-NH2]
19 | 58.9% | 41.1% | Ac-SFRFIV-NH2 [Ac-L-Ser-L-Phe-L-Arg-L-Phe-L-Ile-L-Val-NH2]
20 | 24.1% | 75.9% | Ac-FFQFIV-NH2 [Ac-L-Phe-L-Phe-L-Gln-L-Phe-L-Ile-L-Val-NH2]
21 | 64.9% | 35.1% | Ac-SMWFHS-NH2 [Ac-L-Ser-L-Met-L-Trp-L-Phe-L-His-L-Ser-NH2]
22 | 37.4% | 62.6% | Ac-FFQFHS-NH2 [Ac-L-Phe-L-Phe-L-Gln-L-Phe-L-His-L-Ser-NH2]

Row | Inhibition PAR-2 activity (calcium fluorescence, human keratinocytes, peptide at 1 mg/mL) | PAR-2 activity (calcium fluorescence, human keratinocytes, peptide at 1 mg/mL) | Binder
23 | 86.1% | 13.9% | Ac-FMWDIV-NH2 [Ac-L-Phe-L-Met-L-Trp-L-Asp-L-Ile-L-Val-NH2]
24 | 39.2% | 60.8% | Ac-SFWFIS-NH2 [Ac-L-Ser-L-Phe-L-Trp-L-Phe-L-Ile-L-Ser-NH2]
25 | 66.9% | 33.1% | Ac-FMRDHS-NH2 [Ac-L-Phe-L-Met-L-Arg-L-Asp-L-His-L-Ser-NH2]
26 | 26.2% | 73.8% | Ac-SFQFIV-NH2 [Ac-L-Ser-L-Phe-L-Gln-L-Phe-L-Ile-L-Val-NH2]
27 | 53.7% | 46.3% | Ac-FFRFIV-NH2 [Ac-L-Phe-L-Phe-L-Arg-L-Phe-L-Ile-L-Val-NH2]
28 | 23.4% | 76.7% | Ac-SMQFIV-NH2 [Ac-L-Ser-L-Met-L-Gln-L-Phe-L-Ile-L-Val-NH2]
29 | 14.8% | 85.2% | Ac-FFWDHV-NH2 [Ac-L-Phe-L-Phe-L-Trp-L-Asp-L-His-L-Val-NH2]
30 | 40% | 60% | Ac-FMRFHV-NH2 [Ac-L-Phe-L-Met-L-Arg-L-Phe-L-His-L-Val-NH2]
31 | 15.1% | 84.9% | Ac-SMQFHV-NH2 [Ac-L-Ser-L-Met-L-Gln-L-Phe-L-His-L-Val-NH2]
32 | 67.7% | 32.3% | Ac-FMWFIS-NH2 [Ac-L-Phe-L-Met-L-Trp-L-Phe-L-Ile-L-Ser-NH2]
33 | 39% | 61% | Ac-FFRDIV-NH2 [Ac-L-Phe-L-Phe-L-Arg-L-Asp-L-Ile-L-Val-NH2]
34 | 72.2% | 27.8% | Ac-FMWFHS-NH2 [Ac-L-Phe-L-Met-L-Trp-L-Phe-L-His-L-Ser-NH2]
35 | 9.7% | 90.3% | Ac-FMQDIV-NH2 [Ac-L-Phe-L-Met-L-Gln-L-Asp-L-Ile-L-Val-NH2]
36 | 23% | 77% | Ac-FMQFHS-NH2 [Ac-L-Phe-L-Met-L-Gln-L-Phe-L-His-L-Ser-NH2]
37 | 35.9% | 64.1% | Ac-FFQDIV-NH2 [Ac-L-Phe-L-Phe-L-Gln-L-Asp-L-Ile-L-Val-NH2]
38 | 13.5% | 86.5% | Ac-SMWFHV-NH2 [Ac-L-Ser-L-Met-L-Trp-L-Phe-L-His-L-Val-NH2]
39 | 66.3% | 33.7% | Ac-FFWFIS-NH2 [Ac-L-Phe-L-Phe-L-Trp-L-Phe-L-Ile-L-Ser-NH2]
40 | 35.1% | 64.9% | Ac-FMRFIS-NH2 [Ac-L-Phe-L-Met-L-Arg-L-Phe-L-Ile-L-Ser-NH2]
41 | 27% | 73% | Ac-FFQDIS-NH2 [Ac-L-Phe-L-Phe-L-Gln-L-Asp-L-Ile-L-Ser-NH2]
42 | 26.4% | 73.6% | Ac-SFWFHS-NH2 [Ac-L-Ser-L-Phe-L-Trp-L-Phe-L-His-L-Ser-NH2]
43 | 28.6% | 71.4% | Ac-FMQFIV-NH2 [Ac-L-Phe-L-Met-L-Gln-L-Phe-L-Ile-L-Val-NH2]
